Assay results from doi:10.1101/2019.12.18.881771 (bioRxiv, 2019).
Blank lines part the entries; values can stand above or below the molecule they belong to. No end group written: not given here. *: point of attachment. FITC = O=C1OC2(c3ccc(O)cc3Oc3cc(O)ccc32)c2ccc(NC(=S)*)cc21

Assays:
[1] = molecular target: GIT1 FAT domain (aa 640-770) (mouse) (UniProt Q68FF6); experiment: ITC
[2] = molecular target: FITC-labelled β-Pix GBD peptide, wild type (mouse); experiment: fluorescence polarisation
GIT1 SHD domain = molecular target: T1, GIT1 SHD domain (mouse, UniProt Q68FF6 260-371); experiment: ITC
T1 sequence (looked up): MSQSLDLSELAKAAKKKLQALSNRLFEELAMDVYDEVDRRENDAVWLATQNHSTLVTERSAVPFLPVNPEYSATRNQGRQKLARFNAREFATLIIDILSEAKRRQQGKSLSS

[3] = molecular target: T2, GIT1 GAP-ANK-SHD (GAS) tandem (mouse, UniProt Q68FF6 1-371); experiment: ITC
T2 sequence (looked up): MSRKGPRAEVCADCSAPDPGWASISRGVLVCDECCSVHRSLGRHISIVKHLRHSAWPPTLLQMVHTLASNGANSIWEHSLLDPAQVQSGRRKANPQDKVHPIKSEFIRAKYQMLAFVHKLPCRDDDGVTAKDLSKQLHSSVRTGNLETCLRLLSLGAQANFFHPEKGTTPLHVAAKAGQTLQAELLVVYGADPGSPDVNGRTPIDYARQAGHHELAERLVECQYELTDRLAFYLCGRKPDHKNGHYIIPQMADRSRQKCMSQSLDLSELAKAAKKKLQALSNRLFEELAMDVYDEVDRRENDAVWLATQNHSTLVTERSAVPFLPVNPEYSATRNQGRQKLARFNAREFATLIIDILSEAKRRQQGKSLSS

SEC-MALS = molecular target: the molecule itself; experiment: SEC-MALS
[4] = molecular target: T2, GIT1 GAP-ANK-SHD (GAS) tandem; experiment: fluorescence polarisation

Chain of GIT1 FAT domain (aa 640-770) (mouse) (Q68FF6 640-770): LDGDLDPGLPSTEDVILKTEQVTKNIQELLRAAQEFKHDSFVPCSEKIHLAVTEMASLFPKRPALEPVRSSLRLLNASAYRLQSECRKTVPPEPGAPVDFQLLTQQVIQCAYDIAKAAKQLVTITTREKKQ

Molecule: Paxillin LD2 motif (peptide)
Kd [1]: 164000 nM

Molecule: Paxillin LD4 motif (aa 261-282) (peptide)
Kd [1]: 3000 nM

B1: GIT1 coiled-coil domain, wild type (domain or fragment, mouse, UniProt Q68FF6 426-483, looked up)
chain: SDGAVTLQEYLELKKALATSEAKVQQLMKVNSSLSDELRRLQREIHKLQAENLQLRQP
stoichiometry N (SEC-MALS): 2

B2: β-Pix coiled-coil domain, wild type (domain or fragment, mouse, UniProt Q9ES28-4 691-751, looked up)
chain: EEKSLVDTVYALKDEVQELRQDNKKMKKSLEEEQRARKDLEKLVRKVLKNMNDPAWDETNL
stoichiometry N (SEC-MALS): 3

Second part, the molecule after the results:

Kd [2]: 27 nM
Molecule: GIT2 GAP-ANK-SHD (GAS) tandem, wild type, purified (domain or fragment)

Kd (GIT1 SHD domain): ~180 nM | Kd [3]: ~15 nM
Molecule: ALEEDAQILKVIEAYCTSAKT [β-Pix GBD peptide (aa 528-548)]

Kd (GIT1 SHD domain): ~150 nM
B3: β-Pix 494-555 (domain or fragment, mouse, UniProt Q9ES28-4 599-660, looked up)
chain: DLSKSPKTMKKLLPKRKPERKPSDEEFAVRKSTAALEEDAQILKVIEAYCTSAKTRQTLNSS

Kd [4]: ~76400 nM
Molecule: {FITC}-ALEEDAQILKVIEADCTSAKT (peptide, UniProt Q9ES28-4 633-653, looked up) [FITC-labelled β-Pix GBD Y542D peptide]
